Laboratory results published in US20160362464A1 (University of California, published 2016).
Each block holds one binder with its values, some of them ahead of it.

B1: His-DAPLE-CT (aa 1650-2028) (other)
chain: GTAPPYVGVRPCSASPSSEMVTLEEFLEESNRSSPTHDTPSCRDDLLSDYFRKASDPPAIGGQPGPPAKKEGAKMPTNFVAPTVKMAAPTSEGRPLKPGQYVKPNFRLTEAEAPPSVAPRQAQPPQSLSLGRPRQAPVPPASHAPASRSASLSRAFSLASADLLRASGPEACKQESPQKLGAPEALGGRETGSHTLQSPAPPSSHSLARERTPLVGKAGSSCQGPGPRSRPLDTRRFSLAPPKEERLAPLHQSATAPAIATAGAGAAAAGSGSNSQLLHFSPAAAPAARTKPKAPPRSGEVATITPVRAGLSLSEGDGVPGQGCSEGLPAKSPGRSPDLAPHLGRALEDCSRGSVSKSSPASPEPGGDPQTVWYEYGCV
notes: Recombinant, purified from E. coli; also called His-DAPLE-CT WT; DAPLE-CT WT; not shown: His tag and vector residues of pET28b
B3: His-Gαi3 (GDP-loaded) (other, rat, UniProt P08753 1-354, looked up)
chain: MGCTLSAEDKAAVERSKMIDRNLREDGEKAAKEVKLLLLGAGESGKSTIVKQMKIIHEDGYSEDECKQYKVVVYSNTIQSIIAIIRAMGRLKIDFGEAARADDARQLFVLAGSAEEGVMTSELAGVIKRLWRDGGVQACFSRSREYQLNDSASYYLNDLDRISQTNYIPTQQDVLRTRVKTTGIVETHFTFKELYFKMFDVGGQRSERKKWIHCFEGVTAIIFCVALSDYDLVLAEDEEMNRMHESMKLFDSICNNKWFTDTSIILFLNKKDLFEEKIKRSPLTICYPEYTGSNTYEEAAAYIQCQFEDLNRRKDTKEVYTHFTCATDTKNVQFVFDAVTDVIIKNNLKECGLY
notes: also called recombinant His-Gαi3; not shown: His tag

How the values were obtained:
[1] = target: T1, GST-Gαi3 preloaded with GDP (inactive) (rat, UniProt P08753 1-354); experiment: displacement of Gβγ from preformed GST-Gαi3·Gβγ complexes, immunoblot fitted to a single-site competition curve (FIG. 3C)
T1 construct: Immobilized on glutathione beads; Same polypeptide as m11, other nucleotide state; also called GST-Gαi3 WT; not shown: glutathione S-transferase tag of the pGEX-4T-1 vector
Text: FIGS. 3A-3J. DAPLE's GBA motif triggers the release of ‘free’ Gβγ subunits, which in turn enhance Rac1 and PI3K-Akt signaling. (A) DAPLE's GBA motif and Gβγ subunits are predicted to dock onto an overlapping binding site on Gαi. Binding areas (in red) for DAPLE (left) or Gβγ (right) on Gαi (solid grey) were extracted from a homology-based model of DAPLE-Gαi3 and the crystal structure of the Gαi1·Gβγ complex (PBD: 1GG2), respectively. (B, C) DAPLE displaces Gβγ subunits from Gαi3 via its GEF motif. GST-Gαi3·Gβγ preformed complexes immobilized on glutathione beads were incubated with increasing concentrations of His-DAPLE-CT WT or F1675A (FA). Bound proteins were analyzed by immunoblotting (B) and Gβγ binding data fitted to a single-site competition curve (C). Mean±S.E.M. of 3 independent experiments. […] Control (shLuc) or two clones of DAPLE-depleted HeLa cell lines (shDAPLE 1 and 2) (described in FIGS. 10A & 10B) were incubated in 2% serum media (D) or starved and treated (+) or not (β) with Wnt5a ([…]) for 5 min (E) and analyzed for Rac1 activation by pulldown assays using GST-PBD. […] DAPLE-depleted (shDAPLE 1) HeLa cells transiently transfected with myc-DAPLE-WT or FA were starved and stimulated with Wnt5a and analyzed for Rac1 activation as in E. (G, H) DAPLE's GBA motif is required for activation of PI3K-Akt signaling in HeLa cells, as determined by phosphorylation of Akt at 5473. […]

His-Gαi3 (GDP-loaded) [2] = target: B3; experiment: cell-based or functional assay
[3] = target: B1; experiment: GST pulldown, purified proteins, inactive or active conformations (FIG. 1H)
Protocol: Equal aliquots of lysates of HEK293 cells expressing Gαi3-FLAG were incubated with anti-FLAG mAb or control IgG and protein G beads. Immune complexes were analyzed for DAPLE and Gαi3 (FLAG) by immunoblotting (IB). Gβ was monitored as positive Gαi3-binding control. […] Resin-bound proteins were eluted, separated by SDS-PAGE and analyzed by Ponceau S-staining and immunoblotting (IB) with the indicated antibodies. No binding to GST alone was detected. […] No binding of myc-DAPLE or Gβ to GST alone was detected. […] Insert, Purified GST-DAPLE-CT and GST-GIV (aa 1671-1755, containing the GBA motif) immobilized on glutathione-agarose beads were incubated with increasing amounts (0.01-3 μM) of purified His-Gαi3 (GDP-loaded) and binding analyzed by immunoblotting as described in (D). No binding to GST alone was detected at the highest His-Gαi3 concentration tested. Graph, Gαi3 binding was quantified by measuring band intensities and data fitted to a single-site binding hyperbola (DAPLE=BLUE, GIV=RED) to determine the equilibrium dissociation constants (Kd). Mean±S.E.M of 4 independent experiments. (G) DAPLE binds to all three Gαi subunits. […] (H) DAPLE selectively binds to Gαi, but not Gao.

GST-DAPLE-CT = target: T2, GST-DAPLE-CT (human, UniProt Q9P219 1650-2028); experiment: GST pulldown with 0.01-3 µM His-Gαi3, band intensities fitted to a one-site binding curve (FIG. 1F)
T2 construct: also called GST-DAPLE-CT WT; not shown: glutathione S-transferase tag of the pGEX-4T vector
T2 sequence: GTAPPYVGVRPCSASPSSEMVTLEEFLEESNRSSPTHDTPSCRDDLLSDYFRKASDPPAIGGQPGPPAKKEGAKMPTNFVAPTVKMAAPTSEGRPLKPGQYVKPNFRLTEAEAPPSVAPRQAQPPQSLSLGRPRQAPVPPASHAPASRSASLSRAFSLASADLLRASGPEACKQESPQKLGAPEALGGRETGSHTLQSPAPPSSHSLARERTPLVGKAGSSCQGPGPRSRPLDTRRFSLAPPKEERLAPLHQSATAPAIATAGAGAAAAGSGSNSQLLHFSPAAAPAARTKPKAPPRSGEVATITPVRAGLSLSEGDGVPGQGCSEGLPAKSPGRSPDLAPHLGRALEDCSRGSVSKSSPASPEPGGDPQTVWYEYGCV

GST-FZD7-CT = target: T3, GST-FZD7-CT (UniProt P08515 1-218 = GST); experiment: GST-FZD7-CT pulldown of His-Gαi3 with His-DAPLE-CT WT against His-Gαi3 alone (FIG. 4E)
T3 construct: Immobilized on glutathione beads directly from bacterial lysates; also called GST-FZD7R-CT; Fzl17-CT

[4] = target: T4, myc-DAPLE full length F1675A (human, UniProt Q9P219 1-2028); experiment: co-immunoprecipitation with anti-FLAG mAb from Cos7 cells (FIG. 2E)
T4 construct: Expressed in Cos7 cells; used as cell lysate; also called myc-DAPLE FA; DAPLE-FA; not shown: N-terminal myc tag of myc-pcDNA 3.1 (+)

His-Gαi3 (GDP-loaded) [5] = target: B3; experiment: GST pulldown with 0.01-3 µM His-Gαi3, band intensities fitted to a one-site binding curve (FIG. 1F)

T3 sequence (P08515 whole entry): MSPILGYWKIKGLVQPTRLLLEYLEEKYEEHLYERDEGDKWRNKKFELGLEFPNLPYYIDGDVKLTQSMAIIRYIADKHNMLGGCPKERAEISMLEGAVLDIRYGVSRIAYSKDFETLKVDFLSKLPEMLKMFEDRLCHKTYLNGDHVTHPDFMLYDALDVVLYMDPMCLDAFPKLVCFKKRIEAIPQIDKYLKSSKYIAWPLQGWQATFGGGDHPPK

Binder: B1
IC50 [1]: 160 nM | EC50 of the acceleration of Gαi3 steady-state GTPase activity (His-Gαi3 (GDP-loaded) [2]): 250 nM | rate of steady-state GTP hydrolysis of His-Gαi3 (His-Gαi3 (GDP-loaded) [2]): ~3 fold

Binder: B3
Kd (GST-DAPLE-CT): 110 nM | fold increase of binding in the presence of DAPLE-CT WT (GST-FZD7-CT): ~5 fold

B5: GST-GIV (aa 1671-1755) (other, UniProt Q3V6T2 1671-1755, looked up)
chain: IKTGSPGSEVVTLQQFLEESNKLTSVQIKSSSQENLLDEVMKSLSVSSDFLGKDKPVSCGLARSVSGKTPGDFYDRRTTKPEFLR
notes: range 1671-1755; also called GST-GIV CT 1671-1755 aa; not shown: glutathione S-transferase tag
Kd (His-Gαi3 (GDP-loaded) [5]): 240 nM

More lines, now with the values ahead:

binding result [3]: no binding
B2: GST-Gao (other, rat, UniProt P59215 1-354, looked up)
chain: MGCTLSAEERAALERSKAIEKNLKEDGISAAKDVKLLLLGAGESGKSTIVKQMKIIHEDGFSGEDVKQYKPVVYSNTIQSLAAIVRAMDTLGVEYGDKERKADSKMVCDVVSRMEDTEPFSAELLSAMMRLWGDSGIQECFNRSREYQLNDSAKYYLDSLDRIGAADYQPTEQDILRTRVKTTGIVETHFTFKNLHFRLFDVGGQRSERKKWIHCFEDVTAIIFCVALSGYDQVLHEDETTNRMHESLMLFDSICNNKFFIDTSIILFLNKKDLFGEKIKKSPLTICFPEYPGSNTYEDAAAYIQTQFESKNRSPNKEIYCHMTCATDTNNIQVVFDAVTDIIIANNLRGCGLY
notes: also called Gαo; not shown: glutathione S-transferase tag of the pGEX-4T-1 vector

binding result [4]: no binding
B4: Gαi3-FLAG (other, rat, UniProt P08753 1-354, looked up)
chain: MGCTLSAEDKAAVERSKMIDRNLREDGEKAAKEVKLLLLGAGESGKSTIVKQMKIIHEDGYSEDECKQYKVVVYSNTIQSIIAIIRAMGRLKIDFGEAARADDARQLFVLAGSAEEGVMTSELAGVIKRLWRDGGVQACFSRSREYQLNDSASYYLNDLDRISQTNYIPTQQDVLRTRVKTTGIVETHFTFKELYFKMFDVGGQRSERKKWIHCFEGVTAIIFCVALSDYDLVLAEDEEMNRMHESMKLFDSICNNKWFTDTSIILFLNKKDLFEEKIKRSPLTICYPEYTGSNTYEEAAAYIQCQFEDLNRRKDTKEVYTHFTCATDTKNVQFVFDAVTDVIIKNNLKECGLY
notes: Expressed in HEK293 or Cos7 cells; immunoprecipitated with anti-FLAG mAb; also called FLAG-Gαi3; not shown: FLAG tag
